Several values for one entry are separate records, joined by “and”; a condition that tells them apart may be missing. Equal entries are not always repeated.
How the values were obtained:
PLB-985 cells = experiment: Cellular penetration assay; format: cell-based, human; details: PLB-985 cells in culture, 5 μM DX1 for one hour
Procedure: FIG. 1. DX1 penetrates PLB-985 cells. Cells treated with control or 5 μM DX1 for one hour were washed, fixed, and immunostained to detect DX1. […] Dark stain represents alkaline phosphatase-based detection of signal. Bar: 25 μm.
Work with isolated mouse or human neutrophils is challenging due to their short functional lifespans, and granulocyte-differentiated HL-60 and their subclone PLB-985 human acute myeloid leukemia cells provide a reliable alternative to isolated neutrophils for NETosis studies. The nuclear-penetrating anti-DNA autoantibody 3E10 and its derivative DX1 require expression of the nucleoside transporter ENT2 in order to penetrate target cells. ENT2 expression in HL-60 cells has previously been reported, and DX1 was confirmed to penetrate into ˜100% of PLB-985 cells in culture (FIG. 1).
PLB-985 cells cultured on Shi-fix coverslips (Shikhar Biotech, Khumaltar, Lalitpur, Nepal) were treated for one hour with control media or media containing 5 μM DX1 and then washed and fixed in 100% chilled ethanol. Presence of DX1 in the cells was evaluated by incubation with Pierce™ Recombinant Protein L (1:1000) (#21189, Thermo Fisher Scientific), protein L polyclonal antibody (1:1000) (#PA1-72066, Thermo Fisher Scientific), and goat anti-chicken IgY (H+L) alkaline phosphatase secondary antibody (1:1000) (#PA1-28799, Thermo Fisher Scientific). […]

[1] = tested on: differentiated PLB-985 cells; experiment: Visualization of chromatin decondensation by DAPI stain after PMA stimulation; format: cell-based, human; details: one hour pre-treatment with 10 μM DX1, 300 nM PMA two hours; control cells 67.5%; N=2
Procedure: FIGS. 2A-2D. DAPI and SYTOX™ Green stains support the conclusion that DX1inhibits chromatin decondensation and DNA release by differentiated PLB-985 cells stimulated with PMA. (2A) Chromatin decondensation in differentiated PLB-985 cells after stimulation with PMA±a one hour pre-treatment with 10 μM DX1 was visualized by DAPI stain. Left panel: Control cells with decondensed DAPI stain after PMA stimulation. Right panel: DX1-treated cells retaining condensed DAPI signal after PMA stimulation. Bar: 25 μm. (2B) Quantification of the percentage of differentiated PLB-985 cells with decondensed DAPI stain after PMA stimulation. […] (2C) DNA release by differentiated PLB-985 cells after stimulation with PMA±a one hour pre-treatment with 10 μM DX1 was visualized by addition of the impermeant DNA stain SYTOX™ Green. Representative images are shown. Bar: 25 μm. (2D) SYTOX™ Green signal in wells containing differentiated PLB-985 cells stimulated with PMA±a one hour pre-treatment with 10 […] was quantified by plate reader. […]
Differentiated PLB-985 cells were plated on Shi-fix coverslips in 12-well plates at 5×10^4 cells/well. […] Cells were fixed with ethanol followed by addition of DAPI and visualization of chromatin decondensation by fluorescence microscopy (EVOS FL, Thermo Fisher Scientific).

B1: DX1: 3E10 derivative, a di-scFv having the sequence SEQ ID NO: 38; nuclear-penetrating anti-DNA binding protein (protein)
scFv: DIQMTQSPSSLSASLGDRATITCRASKTVSTSSYSYMHWYQQKPGQPPKLLIKYASYLESGVPSRFSGSGSGTDFTLTISSLQPEDAATYYCQHSREFPWTFGGGTKVEIKTVDAAPGGGGSGGGGSGGGGSEVQLVESGGGLVQPGGSLRLSCAASGFTFSNYGMHWVRQAPGKGLEWVSYISSGSSTIYYADSVKGRFTISRDNAKNSLYLQMNSLRAEDTAVYYCARRGLLLDYWGQGTTVTVSSASTKGPSVFPLAPLESTGSDIQMTQSPSSLSASLGDRATITCRASKTVSTSSYSYMHWYQQKPGQPPKLLIKYASYLESGVPSRFSGSGSGTDFTLTISSLQPEDAATYYCQHSREFPWTFGGGTKVEIKTVDAAPGGGGSGGGGSGGGGSEVQLVESGGGLVQPGGSLRLSCAASGFTFSNYGMHWVRQAPGKGLEWVSYISSGSSTIYYADSVKGRFTISRDNAKNSLYLQMNSLRAEDTAVYYCARRGLLLDYWGQGTTVTVSS
modifications: DX1 sequence
- cells penetrated by DX1 (PLB-985 cells): ~100%
- percentage of cells with decondensed DAPI stain after PMA stimulation [1]: 37.8±2.7% and 37.8±3.8%

From US20250188194A1, “Method of treatment” (Nucleus Therapeutics Pty Ltd, priority 2021, published 2025)
